Assay results published in publication PMC10397247.

Key:
GCN2_T = assay: two-hybrid library CCmax; conditions: mean of both orientations;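 also: natural log of median RNA to DNA barcode read ratio; higher means stronger binding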
4H249-AA = biological target: T1, 4H249-AA; assay: two-hybrid library CCmax; conditions: mean of both orientations;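 also: natural log of median RNA to DNA barcode read ratio; higher means stronger binding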
T1 chain: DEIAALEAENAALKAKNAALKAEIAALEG

4H2931-AA = biological target: T2, 4H2931-AA; assay: two-hybrid library CCmax; conditions: mean of both orientations;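 also: natural log of median RNA to DNA barcode read ratio; higher means stronger binding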
T2 chain: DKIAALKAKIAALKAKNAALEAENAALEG

4H1828-AA = biological target: T3, 4H1828-AA; assay: two-hybrid library CCmax; conditions: mean of both orientations;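 also: natural log of median RNA to DNA barcode read ratio; higher means stronger binding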
T3 chain: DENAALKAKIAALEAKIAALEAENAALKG

4H2124-AA = biological target: T4, 4H2124-AA; assay: two-hybrid library CCmax; conditions: mean of both orientations;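 also: natural log of median RNA to DNA barcode read ratio; higher means stronger binding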
T4 chain: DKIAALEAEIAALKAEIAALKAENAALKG

4H3015-AA = biological target: T5, 4H3015-AA; assay: two-hybrid library CCmax; conditions: mean of both orientations;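 also: natural log of median RNA to DNA barcode read ratio; higher means stronger binding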
T5 chain: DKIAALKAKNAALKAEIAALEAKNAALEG

4H56-AA = biological target: T6, 4H56-AA; assay: two-hybrid library CCmax; conditions: mean of both orientations
T6 chain: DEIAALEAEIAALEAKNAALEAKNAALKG

4H3438-AA = biological target: T7, 4H3438-AA; assay: two-hybrid library CCmax; conditions: mean of both orientations
T7 chain: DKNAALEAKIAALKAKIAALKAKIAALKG

4H2330-AA = biological target: T8, 4H2330-AA; assay: two-hybrid library CCmax; conditions: mean of both orientations
T8 chain: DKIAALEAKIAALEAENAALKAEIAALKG

4H2774-AA = biological target: T9, 4H2774-AA; assay: two-hybrid library CCmax; conditions: mean of both orientations
T9 chain: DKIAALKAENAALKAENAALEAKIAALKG

4H347-AA = biological target: T10, 4H347-AA; assay: two-hybrid library CCmax; conditions: mean of both orientations
T10 chain: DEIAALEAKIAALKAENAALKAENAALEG

4H1930-AA = biological target: T11, 4H1930-AA; assay: two-hybrid library CCmax; conditions: mean of both orientations
T11 chain: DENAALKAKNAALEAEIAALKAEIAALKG

4H2165-AA = biological target: T12, 4H2165-AA; assay: two-hybrid library CCmax; conditions: mean of both orientations
T12 chain: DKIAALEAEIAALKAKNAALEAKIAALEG

4H1821-AA = biological target: T13, 4H1821-AA; assay: two-hybrid library CCmax
T13 chain: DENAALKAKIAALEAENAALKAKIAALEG

4H2592-AA = biological target: T14, 4H2592-AA; assay: two-hybrid library CCmax; conditions: mean of both orientations
T14 chain: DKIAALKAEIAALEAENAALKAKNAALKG

4H2466-AA = biological target: T15, 4H2466-AA; assay: two-hybrid library CCmax; conditions: mean of both orientations
T15 chain: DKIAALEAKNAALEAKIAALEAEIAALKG

4H2343-AA = biological target: T16, 4H2343-AA; assay: two-hybrid library CCmax; conditions: mean of both orientations
T16 chain: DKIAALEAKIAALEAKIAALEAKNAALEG

4H3001-AA = biological target: T17, 4H3001-AA; assay: two-hybrid library CCmax
T17 chain: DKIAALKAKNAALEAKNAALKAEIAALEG

4H_GCN4 = assay: two-hybrid library CCmax
Sequence of 4H_GCN4 (chain, as listed by the source): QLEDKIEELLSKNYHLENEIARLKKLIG

4H406-AA = biological target: T18, 4H406-AA; assay: two-hybrid library CCmax; conditions: mean of both orientations
T18 chain: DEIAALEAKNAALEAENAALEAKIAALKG

4H_APH = biological target: T19, 4H_APH; assay: two-hybrid library CCmax; conditions: mean of both orientations
T19 chain: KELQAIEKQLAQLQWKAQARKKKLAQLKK

4H2253-AA = biological target: T20, 4H2253-AA; assay: two-hybrid library CCmax; conditions: mean of both orientations
T20 chain: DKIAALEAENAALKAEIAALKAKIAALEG

4H2732-AA = biological target: T21, 4H2732-AA; assay: two-hybrid library CCmax; conditions: mean of both orientations
T21 chain: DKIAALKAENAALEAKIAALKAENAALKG

4H_BCR = biological target: T22, 4H_BCR; assay: two-hybrid library CCmax; conditions: mean of both orientations
T22 chain: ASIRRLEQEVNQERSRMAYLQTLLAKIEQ

4H3073-AA = biological target: T23, 4H3073-AA; assay: two-hybrid library CCmax; conditions: mean of both orientations
T23 chain: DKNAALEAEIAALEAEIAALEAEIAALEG

4H452-AA = biological target: T24, 4H452-AA; assay: two-hybrid library CCmax; conditions: mean of both orientations
T24 chain: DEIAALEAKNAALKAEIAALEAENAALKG

4H570-bN = biological target: T25, 4H570-bN; assay: two-hybrid library CCNG1
T25 chain: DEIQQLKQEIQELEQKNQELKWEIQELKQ

4H3638-bN = biological target: T26, 4H3638-bN; assay: two-hybrid library CCNG1
T26 chain: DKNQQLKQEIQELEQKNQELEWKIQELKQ

4H3172-bN = biological target: T27, 4H3172-bN; assay: two-hybrid library CCNG1
T27 chain: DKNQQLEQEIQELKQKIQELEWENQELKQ

4H1804-bN = biological target: T28, 4H1804-bN; assay: two-hybrid library CCNG1
T28 chain: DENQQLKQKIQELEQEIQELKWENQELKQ

4H2839-bN = biological target: T29, 4H2839-bN; assay: two-hybrid library CCNG1
T29 chain: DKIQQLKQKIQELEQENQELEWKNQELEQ

4H1629-bN = biological target: T30, 4H1629-bN; assay: two-hybrid library CCNG1
T30 chain: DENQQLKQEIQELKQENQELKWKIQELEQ

4H906-bN = biological target: T31, 4H906-bN; assay: two-hybrid library CCNG1
T31 chain: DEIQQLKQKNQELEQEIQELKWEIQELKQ

4H3817-bN = biological target: T32, 4H3817-bN; assay: two-hybrid library CCNG1
T32 chain: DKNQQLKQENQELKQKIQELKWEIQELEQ

4H2586-bN = biological target: T33, 4H2586-bN; assay: two-hybrid library CCNG1
T33 chain: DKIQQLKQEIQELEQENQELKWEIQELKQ

4H3631-bN = biological target: T34, 4H3631-bN; assay: two-hybrid library CCNG1
T34 chain: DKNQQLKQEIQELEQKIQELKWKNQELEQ

4H850-bN = biological target: T35, 4H850-bN; assay: two-hybrid library CCNG1
T35 chain: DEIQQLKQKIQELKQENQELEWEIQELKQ

4H619-bN = biological target: T36, 4H619-bN; assay: two-hybrid library CCNG1
T36 chain: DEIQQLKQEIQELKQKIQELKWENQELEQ

4H1710-bN = biological target: T37, 4H1710-bN; assay: two-hybrid library CCNG1
T37 chain: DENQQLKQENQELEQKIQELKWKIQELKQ

4H1985-bN = biological target: T38, 4H1985-bN; assay: two-hybrid library CCNG1
T38 chain: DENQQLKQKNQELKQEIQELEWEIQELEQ

4H3129-bN = biological target: T39, 4H3129-bN; assay: two-hybrid library CCNG1
T39 chain: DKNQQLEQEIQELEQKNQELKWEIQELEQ

4H584-bN = biological target: T40, 4H584-bN; assay: two-hybrid library CCNG1
T40 chain: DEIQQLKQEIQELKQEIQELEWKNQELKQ

4H3974-bN = biological target: T41, 4H3974-bN; assay: two-hybrid library CCNG1
T41 chain: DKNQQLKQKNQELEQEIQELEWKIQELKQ

4H3414-bN = biological target: T42, 4H3414-bN; assay: two-hybrid library CCNG1
T42 chain: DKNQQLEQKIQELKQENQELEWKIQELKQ

4H3613-bN = biological target: T43, 4H3613-bN; assay: two-hybrid library CCNG1
T43 chain: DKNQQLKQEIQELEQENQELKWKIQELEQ

4H1899-bN = biological target: T44, 4H1899-bN; assay: two-hybrid library CCNG1
T44 chain: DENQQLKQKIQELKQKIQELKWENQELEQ

4H3628-bN = biological target: T45, 4H3628-bN; assay: two-hybrid library CCNG1
T45 chain: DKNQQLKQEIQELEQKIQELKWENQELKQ

4H3858-bN = biological target: T46, 4H3858-bN; assay: two-hybrid library CCNG1
T46 chain: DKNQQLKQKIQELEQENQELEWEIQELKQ

4H1544-bN = biological target: T47, 4H1544-bN; assay: two-hybrid library CCNG1
T47 chain: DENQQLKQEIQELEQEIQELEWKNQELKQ

4H1449-bN = biological target: T48, 4H1449-bN; assay: two-hybrid library CCNG1
T48 chain: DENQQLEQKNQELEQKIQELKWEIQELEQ

4H3907-bN = biological target: T49, 4H3907-bN; assay: two-hybrid library CCNG1
T49 chain: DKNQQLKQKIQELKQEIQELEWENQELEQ

4H3601-bN = biological target: T50, 4H3601-bN; assay: two-hybrid library CCNG1
T50 chain: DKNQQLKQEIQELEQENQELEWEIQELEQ

4H3592-bN = biological target: T51, 4H3592-bN; assay: two-hybrid library CCNG1
T51 chain: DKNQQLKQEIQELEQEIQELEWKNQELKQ

4H4038-bN = biological target: T52, 4H4038-bN; assay: two-hybrid library CCNG1
T52 chain: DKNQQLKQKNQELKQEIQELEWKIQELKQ

DENAALKAKIAALEAENAALKAKIAALEG [4H1821-AA] showed an interaction score (GCN2_T) of -1.68, an interaction score (4H249-AA) of -1.68 and an interaction score (4H2931-AA) of -1.77. For the same binder, the interaction score (4H1828-AA) was -2.13, the interaction score (4H2124-AA) was -1.19 and the interaction score (4H3015-AA) was -1.83. It also gave an interaction score (4H56-AA) of -1.44, an interaction score (4H3438-AA) of -1.77 and an interaction score (4H2330-AA) of -0.746. The interaction score (4H2774-AA) was -1.53, the interaction score (4H347-AA) was -1.26 and the interaction score (4H1930-AA) was -1.43. For the same binder, the interaction score (4H2165-AA) was -1.28, the interaction score (4H1821-AA) was 1.48 and the interaction score (4H2592-AA) was -1.24. For the same binder, the interaction score (4H2466-AA) was -1.51, the interaction score (4H2343-AA) was -1.42 and the interaction score (4H3001-AA) was -1.51. For the same binder, the interaction score (4H_GCN4) was -1.85, the interaction score (4H406-AA) was -1.34 and the interaction score (4H_APH) was -2.19. The interaction score (4H2253-AA) was -0.989, the interaction score (4H2732-AA) was -1.04 and the interaction score (4H_BCR) was -1.69. It also gave an interaction score (4H3073-AA) of -1.15 and an interaction score (4H452-AA) of -1.25.

Binder DENQQLKQEIQELKQENQELKWKIQELEQ [4H1629-bN] has an interaction score (4H570-bN) of -2.4, an interaction score (4H3638-bN) of -1.43 and an interaction score (4H3172-bN) of -0.119. The interaction score (4H1804-bN) was -2.35, the interaction score (4H2839-bN) was -1.72 and the interaction score (4H1629-bN) was 1.42. The interaction score (4H906-bN) was -1.39, the interaction score (4H3817-bN) was -2.51 and the interaction score (4H2586-bN) was -1.65. For the same binder, the interaction score (4H3631-bN) was -0.59, the interaction score (4H850-bN) was -0.949 and the interaction score (4H619-bN) was -0.476. It also gave an interaction score (4H1710-bN) of -0.768, an interaction score (4H1985-bN) of -0.575 and an interaction score (4H3129-bN) of -0.732. The interaction score (4H584-bN) was -0.0341, the interaction score (4H3974-bN) was -0.785 and the interaction score (4H3414-bN) was -0.735.

In the case of DENQQLEQKNQELEQKIQELKWEIQELEQ [4H1449-bN], the interaction score (4H570-bN) is reported as -0.581, the interaction score (4H3638-bN) is reported as -1.08 and the interaction score (4H3172-bN) is reported as -0.588. It also gave an interaction score (4H3613-bN) of -1.42, an interaction score (4H1899-bN) of -0.773 and an interaction score (4H1804-bN) of -2.5. For the same binder, the interaction score (4H3628-bN) was -0.461, the interaction score (4H1629-bN) was -0.745 and the interaction score (4H906-bN) was -1.69. It also gave an interaction score (4H3817-bN) of -1.76, an interaction score (4H3631-bN) of -0.391 and an interaction score (4H850-bN) of -1.83. For the same binder, the interaction score (4H3858-bN) was -0.776, the interaction score (4H619-bN) was -0.984 and the interaction score (4H1710-bN) was -0.246. It also gave an interaction score (4H1985-bN) of -1.29, an interaction score (4H3129-bN) of -2.48 and an interaction score (4H584-bN) of -0.471. The interaction score (4H1544-bN) was -1.72, the interaction score (4H3974-bN) was 1.15 and the interaction score (4H3414-bN) was -0.742. For the same binder, the interaction score (4H1449-bN) was -0.847.

DKNQQLKQEIQELEQEIQELEWKNQELKQ [4H3592-bN] showed an interaction score (4H3907-bN) of -1.47, an interaction score (4H3601-bN) of -0.0551 and an interaction score (4H3592-bN) of -0.397. It also gave an interaction score (4H4038-bN) of -0.372.
